Reference: US20200199207A1 (MABYLON, published 2020)
Each block holds one binder with its values, some of them ahead of it.

Columns and labels:
Assay in all cases: competition ELISA, peptide in solution vs coated Ara h 2
Peptide 1 = molecular target: T1, Peptide 1 (peanut)
T1 construct: 20-mer of Ara h 2, overlap of 12 with its neighbours; also called linear Ara h 2 peptide 1
T1 peptide: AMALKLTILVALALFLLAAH
Experimental: (§1) A competition ELISA was used to evaluate binding of exemplary anti-peanut antibodies of the present invention to linear Ara h 2 epitopes. Serial dilutions of linear Ara h 2 epitopes (100 μM down to 0.19 nM; peptides with a length of 20 amino acids and an overlap of 12 amino acids between the peptides) were pre-incubated with exemplary anti-peanut antibodies ([…]) for 1 hour at room temperature. The pre-incubated antibody-epitope mixtures were subsequently incubated on plates coated with full length Ara h 2 (coating overnight at 4° C. with 0.05 μg/ml Ara h 2 in PBS, followed by wash out and blocking with 2% BSA in PBS). The plates were subsequently washed and binding of MAbs to Ara h 2 was detected HRP-conjugated goat anti human Fc-gamma-specific antibody (Jackson ImmunoResearch, West Grove, Pa., USA) followed by measurement of the HRP activity using a tetramethylbenzidine substrate solution (TMB, Sigma-Aldrich Chemie GmbH, Buchs, Switzerland). As may be seen from Table 5, exemplary anti-peanut allergen antibody 32B10 binds to different linear Ara h 2 epitopes than 12G10 and 37D5.

Peptide 2 = molecular target: T2, Peptide 2 (peanut)
T2 construct: also called linear Ara h 2 peptide 2
T2 peptide: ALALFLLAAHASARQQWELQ
Experimental: as §1

Peptide 3 = molecular target: T3, Peptide 3 (peanut)
T3 construct: also called linear Ara h 2 peptide 3
T3 peptide: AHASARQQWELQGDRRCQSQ
Experimental: as §1

Peptide 4 = molecular target: T4, Peptide 4 (peanut)
T4 construct: also called linear Ara h 2 peptide 4
T4 peptide: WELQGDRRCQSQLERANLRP
Experimental: as §1

Peptide 5 = molecular target: T5, Peptide 5 (peanut)
T5 construct: also called linear Ara h 2 peptide 5
T5 peptide: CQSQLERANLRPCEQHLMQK
Experimental: as §1

Peptide 6 = molecular target: T6, Peptide 6 (peanut)
T6 construct: also called linear Ara h 2 peptide 6
T6 peptide: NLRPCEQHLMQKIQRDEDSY
Experimental: as §1

Peptide 7 = molecular target: T7, Peptide 7 (peanut)
T7 construct: also called linear Ara h 2 peptide 7
T7 peptide: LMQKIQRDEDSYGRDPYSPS
Experimental: as §1

Peptide 8 = molecular target: T8, Peptide 8 (peanut)
T8 construct: also called linear Ara h 2 peptide 8
T8 peptide: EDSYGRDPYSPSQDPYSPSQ
Experimental: as §1

Peptide 9 = molecular target: T9, Peptide 9 (peanut)
T9 construct: also called linear Ara h 2 peptide 9
T9 peptide: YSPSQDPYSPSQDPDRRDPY
Experimental: as §1

Peptide 10 = molecular target: T10, Peptide 10 (peanut)
T10 construct: also called linear Ara h 2 peptide 10
T10 peptide: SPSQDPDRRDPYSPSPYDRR
Experimental: as §1

Peptide 11 = molecular target: T11, Peptide 11 (peanut)
T11 construct: also called linear Ara h 2 peptide 11
T11 peptide: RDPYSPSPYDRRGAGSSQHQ
Experimental: as §1

Peptide 12 = molecular target: T12, Peptide 12 (peanut)
T12 construct: also called linear Ara h 2 peptide 12
T12 peptide: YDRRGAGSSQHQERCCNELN
Experimental: as §1

Peptide 13 = molecular target: T13, Peptide 13 (peanut)
T13 construct: also called linear Ara h 2 peptide 13
T13 peptide: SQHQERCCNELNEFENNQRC
Experimental: as §1

Peptide 14 = molecular target: T14, Peptide 14 (peanut)
T14 construct: also called linear Ara h 2 peptide 14
T14 peptide: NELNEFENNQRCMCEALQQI
Experimental: as §1

Peptide 15 = molecular target: T15, Peptide 15 (peanut)
T15 construct: also called linear Ara h 2 peptide 15
T15 peptide: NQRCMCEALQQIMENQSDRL
Experimental: as §1

Peptide 16 = molecular target: T16, Peptide 16 (peanut)
T16 construct: also called linear Ara h 2 peptide 16
T16 peptide: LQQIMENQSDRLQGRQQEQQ
Experimental: as §1

Peptide 17 = molecular target: T17, Peptide 17 (peanut)
T17 construct: also called linear Ara h 2 peptide 17
T17 peptide: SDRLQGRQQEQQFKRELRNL
Experimental: as §1

Peptide 18 = molecular target: T18, Peptide 18 (peanut)
T18 construct: also called linear Ara h 2 peptide 18
T18 peptide: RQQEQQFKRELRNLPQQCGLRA
Experimental: as §1

Peptide 19 = molecular target: T19, Peptide 19 (peanut)
T19 construct: also called linear Ara h 2 peptide 19
T19 peptide: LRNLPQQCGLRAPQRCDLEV
Experimental: as §1

Peptide 20 = molecular target: T20, Peptide 20 (peanut)
T20 construct: also called linear Ara h 2 peptide 20
T20 peptide: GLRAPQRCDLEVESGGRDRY
Experimental: as §1

B1: h4B2 (antibody, V domains shown)
VH: QVQLQEAGPRLVKPSQTLSVTCTVSGASITIGGYYWSWIRQHPGKGLEWMGYIYSNGRTYYNPSLKSRIAMSIDTSKNQFSLKLTSVTAADTAIYFCAREAWETPLWGQGTLITVSS
VL: DIQMTQSPSSLSASVGDRVTITCQANQDIVNSLNWFQHKPGTAPKVLIYDASKLETGVPSRFSGSGSGTHFTFTISGLQPEDFATYFCQQYENLPHTFGQGTKLEIR
notes: Recombinant human IgG; also called hMAb 4B2
- binding result (Peptide 1): no binding (tested: 100 µM)
- binding result (Peptide 2): no binding (tested: 100 µM)
- binding result (Peptide 3): no binding (tested: 100 µM)
- binding result (Peptide 4): no binding (tested: 100 µM)
- binding result (Peptide 5): no binding (tested: 100 µM)
- binding result (Peptide 6): no binding (tested: 100 µM)
- binding result (Peptide 7): no binding (tested: 100 µM)
- binding result (Peptide 8): no binding (tested: 100 µM)
- binding result (Peptide 9): no binding (tested: 100 µM)
- binding result (Peptide 10): no binding (tested: 100 µM)
- binding result (Peptide 11): no binding (tested: 100 µM)
- binding result (Peptide 12): no binding (tested: 100 µM)
- binding result (Peptide 13): no binding (tested: 100 µM)
- binding result (Peptide 14): no binding (tested: 100 µM)
- binding result (Peptide 15): no binding (tested: 100 µM)
- binding result (Peptide 16): no binding (tested: 100 µM)
- binding result (Peptide 17): no binding (tested: 100 µM)
- binding result (Peptide 18): no binding (tested: 100 µM)
- binding result (Peptide 19): no binding (tested: 100 µM)
- binding result (Peptide 20): no binding (tested: 100 µM)

B3: h37D5 (antibody, V domains shown)
VH: EEQLVESGGRLLRPGESLSLSCAAVGFNFGDFGMAWVRQPPGKGLEWVAGINWSGHSTGFVDSMKGRLTISRDSAKSSLFLQMNSLRGEDTAVYYCARVGRLCSGDICDSMGAFDLWGQGTMVTVSS
VL: DIQMTQSPSTLSASIGDRVTITCRASQTIDNWLAWYQQRPGKAPKLLIYQASSLQSGVSSRFRGSGSGTEFTLTITSLQPDDFATYYCQKSNGYSRTFGQGTKVEIK
notes: Recombinant human IgG; also called hMAb 37D5
- binding result (Peptide 1): no binding (tested: 100 µM)
- binding result (Peptide 2): no binding (tested: 100 µM)
- binding result (Peptide 3): no binding (tested: 100 µM)
- binding result (Peptide 4): no binding (tested: 100 µM)
- binding result (Peptide 5): no binding (tested: 100 µM)
- binding result (Peptide 6): no binding (tested: 100 µM)
- binding result (Peptide 7): no binding (tested: 100 µM)
- binding result (Peptide 8): binds
- binding result (Peptide 9): binds
- binding result (Peptide 10): binds
- binding result (Peptide 11): binds
- binding result (Peptide 12): no binding (tested: 100 µM)
- binding result (Peptide 13): no binding (tested: 100 µM)
- binding result (Peptide 14): no binding (tested: 100 µM)
- binding result (Peptide 15): no binding (tested: 100 µM)
- binding result (Peptide 16): no binding (tested: 100 µM)
- binding result (Peptide 17): no binding (tested: 100 µM)
- binding result (Peptide 18): no binding (tested: 100 µM)
- binding result (Peptide 19): no binding (tested: 100 µM)
- binding result (Peptide 20): no binding (tested: 100 µM)

The remaining lines, values ahead:

- binding result (Peptide 1): no binding (tested: 100 µM)
- binding result (Peptide 2): no binding (tested: 100 µM)
- binding result (Peptide 3): no binding (tested: 100 µM)
- binding result (Peptide 4): no binding (tested: 100 µM)
- binding result (Peptide 5): no binding (tested: 100 µM)
- binding result (Peptide 6): no binding (tested: 100 µM)
- binding result (Peptide 7): no binding (tested: 100 µM)
- binding result (Peptide 8): binds
- binding result (Peptide 9): binds
- binding result (Peptide 10): binds
- binding result (Peptide 11): binds
- binding result (Peptide 12): no binding (tested: 100 µM)
- binding result (Peptide 13): no binding (tested: 100 µM)
- binding result (Peptide 14): no binding (tested: 100 µM)
- binding result (Peptide 15): no binding (tested: 100 µM)
- binding result (Peptide 16): no binding (tested: 100 µM)
- binding result (Peptide 17): no binding (tested: 100 µM)
- binding result (Peptide 18): no binding (tested: 100 µM)
- binding result (Peptide 19): no binding (tested: 100 µM)
- binding result (Peptide 20): no binding (tested: 100 µM)
B2: h12G10 (antibody, human IgG1, V domains shown)
VH: EVQLLESGGRLLRPGGSLSLSCVASGFYFGDFGMSWVRQVPGKGLEWVSGIDWSGRSTGYVDSMKGRLTISRDNDKSSLYLQMNDLRGEDTAVYYCARVGRLCSGDSCDSMGAFDLWGQGTMVTVSS
VL: DIQLTQSPSTLSASIGDSVTITCRASQNIDNWLAWYQQKPGKAPRLLIYKASSLGSGVSSKFRGSGFGTEFTLTITSLQPDDFATYYCQKSNGYSRTFGQGTKVDIK
notes: Recombinant human IgG; also called hMAb 12G10

- binding result (Peptide 1): no binding (tested: 100 µM)
- binding result (Peptide 2): no binding (tested: 100 µM)
- binding result (Peptide 3): no binding (tested: 100 µM)
- binding result (Peptide 4): binds
- binding result (Peptide 5): no binding (tested: 100 µM)
- binding result (Peptide 6): no binding (tested: 100 µM)
- binding result (Peptide 7): no binding (tested: 100 µM)
- binding result (Peptide 8): no binding (tested: 100 µM)
- binding result (Peptide 9): no binding (tested: 100 µM)
- binding result (Peptide 10): no binding (tested: 100 µM)
- binding result (Peptide 11): no binding (tested: 100 µM)
- binding result (Peptide 12): no binding (tested: 100 µM)
- binding result (Peptide 13): no binding (tested: 100 µM)
- binding result (Peptide 14): no binding (tested: 100 µM)
- binding result (Peptide 15): no binding (tested: 100 µM)
- binding result (Peptide 16): no binding (tested: 100 µM)
- binding result (Peptide 17): no binding (tested: 100 µM)
- binding result (Peptide 18): no binding (tested: 100 µM)
- binding result (Peptide 19): no binding (tested: 100 µM)
- binding result (Peptide 20): no binding (tested: 100 µM)
B4: h32B10 (antibody, V domains shown)
VH: QVQLVQSGAEVKKPGASVKVSCRASGYIFRNFDINWVRQATGQGLEWMGWMSPKSGDTGYAQKFQGRVTMTRDTSINTAYMELSSLTSEDSAVYYCARGVDGTNWGQGTRVTVSS
VL: DIVMTQSPDSLGVSLGERATISCKSSQSILDNSNNKNFIAWFQQKPGQPPKLLIYWASARESGVPDRFSGSGSGTEFTLTINSLQAEDVAVYYCYQYYSTPHTFGQGTKLDLR
notes: Recombinant human IgG; also called hMAb 32B10
